Where only a bound is given, the exact number is not on record here.

Data set [1] has as its target T1, SERF2 (human, UniProt P84101 1-59).
T1 sequence: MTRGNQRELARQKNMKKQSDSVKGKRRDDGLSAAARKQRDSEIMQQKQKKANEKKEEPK
The data set can be described thus: fluorescence polarization. The conditions noted are these: stated as sub-micromolar, FP/anisotropy: 20 mM NaPi pH 7.4, 100 mM KCl, 25 C (20-200 nM probe), NMR: same buffer, 4 C. A general note: In fluorescence polarisation assays a small probe gives low polarisation when free and higher when bound to something large.

The target of another data set is T2, SERF2 K25A (human, UniProt P84101 1-59, K25A).
T2 sequence: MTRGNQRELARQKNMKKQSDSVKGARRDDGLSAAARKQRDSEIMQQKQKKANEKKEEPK
The data set can be described thus: EMSA; 5 uM each; minimally affected; FP/anisotropy: 20 mM NaPi pH 7.4, 100 mM KCl, 25 C (20-200 nM probe); NMR: same buffer, 4 C. The conditions noted are these: protein: recombinant; tags: His-SUMO removed; label: 6-FAM (FP); unlabeled (NMR, EMSA); intramolecular G4. In general terms: A gel shift assay detects complexes by their altered migration in electrophoresis.

A further data set has as its target T3, SERF2 K23A (human, UniProt P84101 1-59, K23A).
T3 sequence: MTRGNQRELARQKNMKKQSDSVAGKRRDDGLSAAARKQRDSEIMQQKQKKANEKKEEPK
Described as above. Conditions: protein: recombinant; tags: His-SUMO removed; label: 6-FAM (FP); unlabeled (NMR, EMSA); intramolecular G4.

In data set [2] the target is T1, SERF2. As to the kind of experiment: fluorescence polarization; 100 mM KCl; FP/anisotropy: 20 mM NaPi pH 7.4, 100 mM KCl, 25 C (20-200 nM probe); NMR: same buffer, 4 C. The conditions noted are these: protein: recombinant, tags: His-SUMO removed, AF488-labeled in some assays.
Another data set concerns the target T4, SERF2 N-terminal domain (human, UniProt P84101 1-32).
T4 chain: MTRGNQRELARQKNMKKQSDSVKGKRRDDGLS
Described as above. The conditions noted are these: protein: recombinant; label: 6-FAM (FP); unlabeled (NMR, EMSA); intramolecular G4.

The target in data set [3] is T1, SERF2. As to the kind of experiment: fluorescence polarization/anisotropy; stated as sub-micromolar; FP/anisotropy: 20 mM NaPi pH 7.4, 100 mM KCl, 25 C (20-200 nM probe); NMR: same buffer, 4 C. Conditions: protein: recombinant; tags: His-SUMO removed; AF488-labeled in some assays; label: Cy3; G4.
Data set [4] concerns the target T1, SERF2. The data set can be described thus: fluorescence polarization; stated as sub-micromolar; FP/anisotropy: 20 mM NaPi pH 7.4, 100 mM KCl, 25 C (20-200 nM probe); NMR: same buffer, 4 C. The conditions noted are these: protein: recombinant; tags: His-SUMO removed; AF488-labeled in some assays; label: 6-FAM; G4.
Data set [5] deals with T1, SERF2. As to the kind of experiment: EMSA; 10 uM RNA, 5-40 uM SERF2; FP/anisotropy: 20 mM NaPi pH 7.4, 100 mM KCl, 25 C (20-200 nM probe); NMR: same buffer, 4 C. Conditions: protein: recombinant; tags: His-SUMO removed; AF488-labeled in some assays; G4.
For data set [6], the target named is T1, SERF2. As to the kind of experiment: NMR (HSQC, imino 1H, STD); FP/anisotropy: 20 mM NaPi pH 7.4, 100 mM KCl, 25 C (20-200 nM probe); NMR: same buffer, 4 C. Conditions: protein: recombinant; tags: His-SUMO removed; AF488-labeled in some assays; dimeric G4 (2 strands).

In the case of polyG, the Kd (as a rule, the free concentration of one partner at which half of the binding sites on the other are occupied at equilibrium, for simple one-to-one binding) with SERF2 [1] was under 1000 nM.

TERRA60 registered a Kd in the data set with SERF2 [1] (AF488-SERF2, similar to TERRA23) of under 1000 nM. With UAGGGUUAGGGUUAGGGUUAGGG (structured_RNA) [TERRA23], the binding result with SERF2 K25A and with SERF2 K23A was “binds” each time. For the same molecule, the Kd in the data set with SERF2 [2] (label: 6-FAM (FP), unlabeled (NMR, EMSA), intramolecular G4) came out at 300 ± 20 nM. The binding signal with SERF2 N-terminal domain is ~10 fold weaker than full length. Turning to GGGGCCGGGGCCGGGGCCGGGGCC (structured_RNA) [(G4C2)4 RNA], the Kd in the data set with SERF2 [2] (label: 6-FAM, G4) was 880 ± 100 nM.

For AGGAGGAGGAGGAGG (structured_RNA) [(AGG)5], the dissociation constant (Kd) in the data set with SERF2 [3] was under 1000 nM. Regarding GAAGGGGAGGGGGCUGGGGGGGGGCAGGG (structured_RNA) [Mark2 rG4], the dissociation constant Kd in the data set with SERF2 [2] (label: 6-FAM (FP), G4) came to 4500 ± 500 nM.

For GGGAGGGAGGGAGGGA (structured_RNA) [(GGGA)4], the Kd in the data set with SERF2 [4] was under 1000 nM. GGGAAGGGAAGGGGAGUGGG (structured_RNA) [Stxbp5 rG4]: in the data set with SERF2 [5], the binding result was “binds”.

With GGAGGAGGAGGAGGAGGAGGA (structured_RNA) [(GGA)7], the Kd in the data set with SERF2 [4] was under 1000 nM. On to UUAGGGUUAGGG (structured_RNA) [TERRA12], for which the binding result in the data set with SERF2 [6] is “binds”. Consider UGGGGUUGGGGUUGGGGUUGGGGUUGGGGUUGGGGU (structured_RNA) [(UG4U)6], for which the Kd with SERF2 [2] (label: 6-FAM, G4) came to 730 ± 250 nM.

The values are drawn from paper PMC12480911, “Visualization of liquid-liquid phase transitions using a tiny G-quadruplex binding protein”.
